In this assay the target is CD137 (soluble antigen for staining of yeast) (human) (UniProt Q07011). Put plainly: flow cytometry of yeast displaying the scFv, stained with human CD137; number printed over the dot plot, y axis CD137 binding (FL2-A PE-A), x axis scFv display. For orientation: In flow cytometry, cells or beads pass a laser one at a time.

This passage reports Y results from patent US20190241886A1.

Chain of CD137 (soluble antigen for staining of yeast) (human) (Q07011 24-186 limits assumed): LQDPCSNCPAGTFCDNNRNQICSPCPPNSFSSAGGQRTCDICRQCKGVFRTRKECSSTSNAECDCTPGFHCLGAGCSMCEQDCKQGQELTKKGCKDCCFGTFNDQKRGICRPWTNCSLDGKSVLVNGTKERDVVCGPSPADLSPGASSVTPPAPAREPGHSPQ

B1: scFv of parental CD137 antibody TY21242 displayed on yeast (scFv, part only; not given: linker, Aga2 and tag, V domains shown, not shown: another chain or arm of the molecule; large carriers; small tags and cut ends)
VL: DIQLTQSPSSLSASVGDRVTITCRASQSIGSYLAWYQQKPGKAPKLLIYDASNLETGVPSRFSGSGSGTDFTLTISSLQPEDFATYYCQQGYYLWTFGQGTKVEIK
VH: EVQLVESGGGLVQPGGSLRLSCAASGFSLSTGGVGVGWIRQAPGKGLEWLALIDWADDKYYSPSLKSRLTISRDNSKNTLYLQLNSLRAEDTAVYYCARGGSDTVIGDWFAYWGQGTLVTVSS
Regarding B1, the Y is 19200.
